Source: patent publication US20150166647A1 (VLST, published 2015)

Legend:
mouse MIP-1β/CCL4 = target: T1, mouse MIP-1β/CCL4 (mouse, UniProt P14097 24-92); experiment: MSD electrochemiluminescence, chemokine coated at 1 µg/mL
T1 construct: also called muMIP-1β
T1 sequence: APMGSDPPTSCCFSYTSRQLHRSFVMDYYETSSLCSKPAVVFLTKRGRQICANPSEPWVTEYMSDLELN

mouse MIP-1α/CCL3 = target: T2, mouse MIP-1α/CCL3 (mouse, UniProt P10855 24-92); experiment: as above
T2 construct: also called muMIP-1α
T2 sequence: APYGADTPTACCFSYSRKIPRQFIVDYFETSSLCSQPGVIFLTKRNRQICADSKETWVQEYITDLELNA

mouse RANTES/CCL5 = target: T3, mouse RANTES/CCL5 (mouse, UniProt P30882 24-91); experiment: as above
T3 construct: also called muRANTES
T3 sequence (P30882 24-91 limits assumed): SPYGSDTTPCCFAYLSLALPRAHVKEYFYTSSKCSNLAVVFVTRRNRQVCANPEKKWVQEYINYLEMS

HCC-4 = target: T4, HCC-4; experiment: MSD electrochemiluminescence assay; chemokine coated at 1 µg/mL, 18P7E as unquantitated hybridoma supernatant; background = BSA
T4 construct: also called HCC-4/CCL16; CCL16
T4 chemokine: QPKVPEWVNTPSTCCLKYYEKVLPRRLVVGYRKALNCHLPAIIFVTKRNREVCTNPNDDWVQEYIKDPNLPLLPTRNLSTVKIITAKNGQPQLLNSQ

human HCC-1/CCL14/CCL14a = target: T5, human HCC-1/CCL14/CCL14a (human, UniProt Q16627 28-93); experiment: as above
T5 sequence: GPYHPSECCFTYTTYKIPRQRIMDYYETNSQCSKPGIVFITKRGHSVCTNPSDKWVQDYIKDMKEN

MCP-3 = target: T6, MCP-3; experiment: as above
T6 construct: also called MCP-3/CCL7; CCL7
T6 sequence (chemokine, as listed by the source): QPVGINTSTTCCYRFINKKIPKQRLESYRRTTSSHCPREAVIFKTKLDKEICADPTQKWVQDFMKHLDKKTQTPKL

MDC = target: T7, MDC; experiment: as above
T7 construct: also called MDC/CCL22; CCL22
T7 chemokine: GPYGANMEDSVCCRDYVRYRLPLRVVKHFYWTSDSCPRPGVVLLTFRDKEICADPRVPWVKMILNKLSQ

SDF = target: T8, SDF; experiment: as above
T8 construct: also called SDF-1/CXCL12; CXCL12
T8 sequence (chemokine, as listed by the source): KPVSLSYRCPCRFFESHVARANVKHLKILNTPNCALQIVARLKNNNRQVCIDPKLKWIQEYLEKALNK

Fractalkine = target: T9, Fractalkine; experiment: as above
T9 construct: also called Fractalkine/CX3CL1; CX3CL1
T9 chemokine: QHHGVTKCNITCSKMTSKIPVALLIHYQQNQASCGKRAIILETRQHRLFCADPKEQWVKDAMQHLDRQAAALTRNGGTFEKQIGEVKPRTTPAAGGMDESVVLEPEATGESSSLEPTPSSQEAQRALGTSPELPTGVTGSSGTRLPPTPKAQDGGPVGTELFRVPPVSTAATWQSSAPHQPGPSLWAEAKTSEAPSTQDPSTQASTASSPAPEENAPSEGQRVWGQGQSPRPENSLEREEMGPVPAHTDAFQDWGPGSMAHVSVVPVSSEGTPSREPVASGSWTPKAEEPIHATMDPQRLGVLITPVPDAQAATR

human PARC/CCL18 = target: T10, human PARC/CCL18 (human, UniProt P55774 21-89); experiment: as above
T10 sequence: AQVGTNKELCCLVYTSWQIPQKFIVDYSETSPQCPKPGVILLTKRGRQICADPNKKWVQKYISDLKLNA

I-309 = target: T11, I-309; experiment: as above
T11 construct: also called I-309/CCL1; CCL1
T11 chemokine: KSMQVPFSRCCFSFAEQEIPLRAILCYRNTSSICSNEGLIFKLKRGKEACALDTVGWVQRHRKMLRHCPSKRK

IL-8 = target: T12, IL-8; experiment: as above
T12 construct: also called IL-8/CXCL8; CXCL8
T12 sequence (chemokine, as listed by the source): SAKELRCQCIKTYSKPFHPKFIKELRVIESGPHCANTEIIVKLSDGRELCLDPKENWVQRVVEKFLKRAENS

Eotaxin = target: T13, Eotaxin; experiment: as above
T13 construct: also called Eotaxin/CCL11; CCL11
T13 sequence (chemokine, as listed by the source): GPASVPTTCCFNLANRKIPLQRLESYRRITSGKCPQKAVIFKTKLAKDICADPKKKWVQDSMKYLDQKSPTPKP

human HCC-2/MIP-1δ/CCL15 = target: T14, human HCC-2/MIP-1δ/CCL15 (human, UniProt Q16663 46-113); experiment: as above
T14 sequence: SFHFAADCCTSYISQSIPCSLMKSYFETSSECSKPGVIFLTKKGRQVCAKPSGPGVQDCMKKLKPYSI

MCP-2 = target: T15, MCP-2; experiment: as above
T15 construct: also called MCP-2/CCL8; CCL8
T15 chemokine: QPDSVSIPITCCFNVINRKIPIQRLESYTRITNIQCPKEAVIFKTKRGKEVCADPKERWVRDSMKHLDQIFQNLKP

MCP-4 = target: T16, MCP-4; experiment: as above
T16 construct: also called MCP-4/CCL13; CCL13
T16 sequence (chemokine, as listed by the source): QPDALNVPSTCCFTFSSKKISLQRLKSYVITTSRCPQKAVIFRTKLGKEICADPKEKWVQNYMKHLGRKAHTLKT

ELC = target: T17, ELC; experiment: as above
T17 construct: also called ELC/MIP-3β/CCL19; CCL19
T17 chemokine: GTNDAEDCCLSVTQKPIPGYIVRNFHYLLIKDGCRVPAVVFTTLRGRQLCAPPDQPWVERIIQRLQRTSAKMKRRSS

human MCP-1/CCL2 = target: T18, human MCP-1/CCL2 (human, UniProt P13500 24-99); experiment: as above
T18 construct: also called Biotin-MCP1
T18 sequence (P13500 24-99 limits assumed): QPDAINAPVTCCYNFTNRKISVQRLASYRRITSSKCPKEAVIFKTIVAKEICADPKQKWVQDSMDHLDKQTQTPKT

human MPIF-1/CCL23 = target: T19, human MPIF-1/CCL23 (human, UniProt P55773 46-120); experiment: as above
T19 sequence: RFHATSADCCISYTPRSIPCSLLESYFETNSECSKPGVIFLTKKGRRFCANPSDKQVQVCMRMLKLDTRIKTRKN

B1: monoclonal antibody 18P7E (antibody, V domains shown)
VH: QVQLKESGPGLVAPSQSLSITCTVSGFSLTGYGIHWVRQPPGKGLEWLGVIWPGGGTNYNSALMSRLNISKDNSKSQVFLKMNSLQTDDTAMYYCARGPLITTEVSMDYWGQGTSVTVSS
VL: QAVVTQESALTTSPGETVTLTCRSNTGAVTTSNYANWVQEKPDHLFTGLIGGTNNRAPGVPARFSGSLIGDKAALTITGAQTEDEAIYFCALWYSNHWVFGGGTKLTVLG
notes: also called MAb 18P7E
binding result (mouse MIP-1β/CCL4): no binding (tested: unquantitated hybridoma supernatant) | binding result (mouse MIP-1α/CCL3): no binding (tested: unquantitated hybridoma supernatant) | binding result (mouse RANTES/CCL5): no binding (tested: unquantitated hybridoma supernatant) | binding result (HCC-4): no binding (tested: unquantitated hybridoma supernatant) | binding result (human HCC-1/CCL14/CCL14a): no binding (tested: unquantitated hybridoma supernatant) | binding result (MCP-3): no binding (tested: unquantitated hybridoma supernatant) | binding result (MDC): no binding (tested: unquantitated hybridoma supernatant) | binding result (SDF): no binding (tested: unquantitated hybridoma supernatant) | binding result (Fractalkine): no binding (tested: unquantitated hybridoma supernatant) | binding result (human PARC/CCL18): no binding (tested: unquantitated hybridoma supernatant) | binding result (I-309): no binding (tested: unquantitated hybridoma supernatant) | binding result (IL-8): no binding (tested: unquantitated hybridoma supernatant) | binding result (Eotaxin): no binding (tested: unquantitated hybridoma supernatant) | binding result (human HCC-2/MIP-1δ/CCL15): no binding (tested: unquantitated hybridoma supernatant) | binding result (MCP-2): no binding (tested: unquantitated hybridoma supernatant) | binding result (MCP-4): no binding (tested: unquantitated hybridoma supernatant) | binding result (ELC): no binding (tested: unquantitated hybridoma supernatant) | binding result (human MCP-1/CCL2): no binding (tested: unquantitated hybridoma supernatant) | binding result (human MPIF-1/CCL23): no binding (tested: unquantitated hybridoma supernatant)
